Measured values reported in patent publication US20140141994A1.

B1: SynBP01 (designed binder)
chain: AAIEVKDVTDTTALITWSPPSVLVGYTIELTYGIKDVPGDRTTIDLTEDENQYSIGNLKPDTEYEVSLISVTEFGRRRSKETFTTGGGTLEHHHHHH
B2: SynBP01-Fc (Fc fusion, not shown: a dimerising Fc or GST)
chain: IEVKDVTDTTALITWSPPSVLVGYTIELTYGIKDVPGDRTTIDLTEDENQYSIGNLKPDTEYEVSLISVTEFGRRRSKETFTT

How the values were obtained:
[1] = molecular target: SYNAGIS®; assay: SPR BIAcore 3000, SYNAGIS immobilized via primary amino groups, equilibrium binding of soluble SynBP01
SYNAGIS®, sequence (VH, as listed by the source, chain 1 of 2): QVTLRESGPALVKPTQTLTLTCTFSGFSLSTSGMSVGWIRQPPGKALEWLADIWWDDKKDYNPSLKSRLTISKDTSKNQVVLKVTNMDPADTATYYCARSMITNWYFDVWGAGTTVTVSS
SYNAGIS®, sequence (VL, as listed by the source, chain 2 of 2): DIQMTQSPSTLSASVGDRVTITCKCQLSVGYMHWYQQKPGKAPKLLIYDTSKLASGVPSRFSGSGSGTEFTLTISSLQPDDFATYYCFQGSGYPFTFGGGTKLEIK

[2] = molecular target: SYNAGIS®; assay: SPR BIAcore 3000, both injected at 1 µM over immobilized SYNAGIS

Row | Binder | Kd [1] [µM] | fold increase in total response units compared to SynBP01 [2] [fold]
1 | B1 | 16 | –
2 | B2 | – | 6
